{
  "source": "patent US10184116B2",
  "about": "“Chimeric genes for the catalytic protein of Oplophorus luciferase and use thereof” (JNC CORPORATION, priority 2014, dated 2019)",
  "molecules": {"B1": {"name": "KAZ: 19 kDa protein of native Oplophorus luciferase having luminescence activity; SEQ ID NO: 2 (protein, listed as Oplophorus gracilirostris)", "chain": "FTLADFVGDWQQTAGYNQDQVLEQGGLSSLFQALGVSVTPIQKVVLSGENGLKADIHVIIPYEGLSGFQMGLIEMIFKVVYPVDDHHFKIILHYGTLVIDGVTPNMIDYFGRPYPGIAVFDGKQITVTGTLWNGNKIYDERLINPDGSLLFRVTINGVTGWRLCENILA"}},
  "key": {"CHO-K1 cells [1]": {"test_system": "CHO-K1 cells", "experiment": "Luminescence activity of KAZ mutants expressed in animal cultured cells, culture medium and cell extract (Example 6)", "format": "cell-based, Chinese hamster", "conditions": "pcDNA3-GLsp- vector in CHO-K1, coelenterazine substrate", "protocol": "(§1) Chinese hamster ovary cell line CHO-K1 was cultured in Ham's F-12 medium (manufactured by Wako Pure Chemical Industries, Ltd.) supplemented with 10% (v/v) fetal bovine serum (manufactured by Biowest Inc.). The CHO-K1 cells were seeded in a 6-well plate in 1×10^5 cells/well/2 mL medium (n=2) and cultured in an incubator at 37° C. in 5% (v/v) CO2. After 24 hours, the purified recombinant plasmid was transfected to CHO-K1 cells using a FuGene HD transfection kit (manufactured by Promega Corp.) and the cells were used for subsequent experiment. Specifically, 1 μg of the recombinant plasmid, 0.1 μg of the internal standard vector pGL4.13 [Luc2/sv40] and 3 μL of FuGene HD were added to 100 μL of the medium and allowed to stand at room temperature for 15 minutes. Subsequently, 100 μL of the DNA-FuGene complex solution was added to the cells in the 6-well plate. After incubation for 46 hours, the culture medium was collected. On the other hand, the KAZ mutant expressed in the cells was washed 3 times with 3 mL of 1×PBS, then suspended in 1 mL of 1×PBS and disrupted by sonication on ice. The resultant cell extract of WNanoKAZ was used as the enzyme solution.\n(§2) After adding 5 μL of the culture medium and cell extract obtained in EXAMPLE 5 to 100 μL of 30 mM Tris-HCl (pH 7.6)-10 mM EDTA (Wako Pure Chemical Industries, Ltd.) containing 1 μg of coelenterazine (manufactured by JNC Corp.), a luminescence reaction was started. Luminescence activity was measured for 60 seconds using a luminometer (manufactured by Atto Inc.: AB2200). The maximum intensity of luminescence (Imax) was given as a percentage (%)."}, "CHO-K1 cells [2]": {"test_system": "CHO-K1 cells", "experiment": "Luminescence activity of WNanoKAZ mutants expressed by secretory expression vectors in animal culture cells (Example 13)", "format": "cell-based, Chinese hamster", "conditions": "pcDNA3-GLsp- secretory vector, coelenterazine substrate", "protocol": "as §1, §2\nThe recombinant plasmid obtained in EXAMPLE 12 or 4 was purified in a manner similar to EXAMPLE 5 and dissolved in sterile water. The firefly luciferase vector (pGL4.13 [Luc2/sv40]: manufactured by Promega Corp.) was similarly prepared and used as an internal standard.\nCulture medium containing two amino acid-substituted KAZ mutants and three amino acid-substituted KAZ mutants and cell extracts of the KAZ mutants as the enzyme solutions were prepared by the same procedure as in EXAMPLE 9.\nThe resultant culture medium and cell extracts were used to measure luminescence activity as in EXAMPLE 6."}, "[3]": {"experiment": "Substrate specificity of WNanoKAZ mutants, crude enzyme solution (Example 11)", "format": "biochemical", "protocol": "(§3) DTT was added to the crude enzyme solution obtained in EXAMPLE 9 at a final concentration of 1 mM, and then allowed to stand in an ice-water bath over 8 hours or more. After 1 μL of the crude enzyme solution was added to 100 μL of 30 mM Tris-HCl (pH 7.6)-10 mM EDTA (Wako Pure Chemical Industries, Ltd.) containing 1 μg of coelenterazine (manufactured by JNC Corp.), a luminescence reaction was started. Luminescence activity was measured for 60 seconds using a luminometer (manufactured by Atto Inc.: AB2200). The maximum intensity of luminescence (Imax) was given as a relative luminescence activity (rlu).\nEach of the coelenterazine analogues used for substrate specificity studies was synthesized by the methods described in publications. Specifically, bis-coelenterazine was synthesized by the method described in Nakamura et al. (1997) Tetrahedron Lett. 38: 6405-6406, furimazine by the method described in Hall et al. (2012) ACS Chem. Biol. […], and, 6h-coelenterazine, f-coelenterazine and 6h-f-coelenterazine by the method described in Inouye et al (2013) Biochem. Biophys. Res. Commun. 437: 23-28. Luminescence activity was measured by the same method as in EXAMPLE 10, using the crude enzyme solution obtained in EXAMPLE 10, in which coelenterazine or its analogue was used as the luminescence substrate."}, "[4]": {"experiment": "Luminescence activity of WNanoKAZ in crude enzyme solution (Example 3)", "format": "biochemical", "conditions": "crude enzyme solution, pCold-ZZ-P- vector in E. coli; coelenterazine substrate; KAZ = 1.0", "protocol": "In order to express WNanoKAZ in E. coli, pCold-ZZ-P-WNanoKAZ obtained in EXAMPLE 1 was used. The E. coli BL21 strain (Novagen, Madison, Wis.) was used as a host cell. The BL21 strain carrying the recombinant plasmid was incubated in 5 mL of Luria-Bertani medium (hereinafter designated as LB medium) containing ampicillin (50 μg/mL) at 37° C. for 17 hours. The seed culture of 0.1 mL was inoculated to 10 mL of LB medium and incubated for 3 hours, followed by cooling in freezing water for 1 hour. IPTG was added to the culture medium at a final concentration of 0.1 mM, followed by incubation at 15° C. for further 19 hours. After completion of the incubation, 1 mL of the culture medium was collected by centrifugation at 10,000 rpm for 2 minutes. The collected E. coli cells were suspended in 0.5 mL of 30 mM Tris-HCl (pH 7.6)-10 mM EDTA. The cells were disrupted by sonication for 3 seconds using a Branson Model 250 Sonifire (Danbury, Conn.) to give a crude enzyme solution. Then, DTT was added to the crude enzyme solution at a final concentration of 1 mM. After the mixture was allowed to stand in freezing water over 8 hours or more, the luminescence activity was measured.\n1 μl of the crude enzyme solution obtained in EXAMPLE 2 was added to 100 μl of 30 mM Trix-HCl (pH 7.6)-10 mM EDTA (Wako Pure Chemical Industries, Ltd.) containing 1 μg of coelenterazine (manufactured by JINC Corp.), luminescence reaction was started. Luminescence activity was measured for 60 seconds using a luminometer (manufactured by Atto Inc.: AB2200); the maximum intensity of luminescence (Imax) was given as a relative luminescence activity."}, "[5]": {"experiment": "Luminescence activity of ZZ-fused WNanoKAZ mutants in crude enzyme solution (Example 10)", "format": "biochemical", "conditions": "ZZ-fused, pCold-ZZ-P- vector in E. coli, coelenterazine substrate, KAZ = 1.0", "protocol": "In order to express ZZ-fused KAZ mutants in E. coli, the recombinant plasmid produced in EXAMPLE 8 and pCold-ZZ-P-WNanoKAZ produced in EXAMPLE 1 were used. The crude enzyme solution was prepared in a manner similar to EXAMPLE 2, using the E. coli BL21 strain (Novagen, Madison, Wis.) as a host cell. Then, 5 μL of the crude enzyme solution obtained was subjected to SDS-PAGE analysis to confirm the protein expression in all mutants. In FIG. 1, M and 1 to 8 represent as follows. M: molecular weight size markers; 1: ZZ-P-KAZ; 2: ZZ-P-WNanoKAZ; 3: ZZ-P-WNanoKAZ-V90I; 4: ZZ-P-WNanoKAZ-E115P; 5: ZZ-P-WNanoKAZ-K124Q; 6: ZZ-P-WNanoKAZ-I138Y; 7: ZZ-P-WNanoKAZ-R166N; 8: ZZ-P-dnKAZ. It was confirmed from FIG. 1 that all mutants were expressed.\nas §3"}},
  "data": [
    {"molecule": "B1", "values": [
      {"measurement": "Relative luminescence activity (%, Imax) Cell extracts", "setting": "CHO-K1 cells [1]; cell extracts", "result": 0.2, "unit": "%"},
      {"measurement": "Relative luminescence activity (%, Imax) Culture medium", "setting": "CHO-K1 cells [1]; culture medium", "result": 0.1, "unit": "%"},
      {"measurement": "Relative luminescence activity (%, Imax) Cell extracts", "setting": "CHO-K1 cells [2]; cell extracts", "result": 0.2, "unit": "%"},
      {"measurement": "Relative luminescence activity (%, Imax) Culture medium", "setting": "CHO-K1 cells [2]; culture medium", "result": 0.1, "unit": "%"},
      {"measurement": "Relative luminescence activity, Furimazine, Imax", "setting": "[3]; Imax", "result": 0.2},
      {"measurement": "Relative luminescence activity, bis-CTZ, Imax", "setting": "[3]; Imax", "result": 0.5},
      {"measurement": "Relative luminescence activity, f-CTZ, Imax", "setting": "[3]; Imax", "result": 1.0},
      {"measurement": "Relative luminescence activity, h-CTZ, Imax", "setting": "[3]; Imax", "result": 1.2},
      {"measurement": "Relative luminescence activity, Furimazine, Int.", "setting": "[3]; Int.", "result": 0.3},
      {"measurement": "Relative luminescence activity, bis-CTZ, Int.", "setting": "[3]; Int.", "result": 0.1},
      {"measurement": "Relative luminescence activity, f-CTZ, Int.", "setting": "[3]; Int.", "result": 0.9},
      {"measurement": "Relative luminescence activity, h-CTZ, Int.", "setting": "[3]; Int.", "result": 0.9},
      {"measurement": "Relative luminescence activity, 6h-CTZ, Imax", "setting": "[3]; substrate 6h-CTZ, Imax", "result": 0.08},
      {"measurement": "Relative luminescence activity, 6h-CTZ, Int.", "setting": "[3]; substrate 6h-CTZ, Int.", "result": 0.1},
      {"measurement": "Relative luminescence activity, 6h-f-CTZ, Imax", "setting": "[3]; substrate 6h-f-CTZ, Imax", "result": 0.3},
      {"measurement": "Relative luminescence activity, 6h-f-CTZ, Int.", "setting": "[3]; substrate 6h-f-CTZ, Int.", "result": 0.4},
      {"measurement": "Relative luminescence activity, CTZ, Imax", "setting": "[3]; substrate CTZ, Imax", "result": 1.0},
      {"measurement": "Relative luminescence activity, CTZ, Int.", "setting": "[3]; substrate CTZ, Int.", "result": 1.0},
      {"measurement": "Relative luminescence activity (Imax)", "setting": "[4]", "result": 1.0},
      {"measurement": "Relative luminescence activity (Imax)", "setting": "[5]", "result": 1.0}
    ]}
  ]
}
